From US20090258007A1 (Kyowa Kirin, published 2009)

Experiments:
[1] = molecular target: T1, human PERP with myc-His tag expressed in CHO/DG44 cells (PERP/CHO cell) (human, UniProt Q96FX8 1-193); test: flow cytometry on PERP/CHO cells against CHO/DG44 cells, 10 µg/ml
T1 construct: Four-pass membrane protein of 193 amino acids; On intact cells in FMAT and flow cytometry; as Triton X lysate in sandwich ELISA and immunoprecipitation; SDS-denatured in Western blotting; also called PERP/CHO cells; PERP-expressing cell line; not shown: C-terminal myc-His tag from pcDNA 3.1(-)/myc-His C
Description: As the cells, PERP/CHO cells and CHO/DG44 cells were used. The cells which were cultured for 2 to 3 days on an Iscove's Modified Dulbecco's medium (manufactured by Invitrogen) containing 10% fetal bovine serum and peeled off by 0.02% EDTA solution (manufactured by Nacalai Tesque) were washed with PBS and blocked for 20 minutes at ice temperature using BSA-PBS in order to avoid non-specific antibody adsorption. […] Again, washing was carried out 3 times using PBS by a centrifugation method, followed by suspension in PBS, and wavelength of 510 to 530 nm excited by laser beam 488 nm Ar was measured by a flow cytometer (manufactured by Beckman Coulter).

[2] = molecular target: T1, human PERP with myc-His tag expressed …; test: flow cytometry on PERP/CHO cells, 5-fold dilutions from 20 µg/mL
Description: After washing with a buffer for FCM twice, a solution in which PE-labeled anti-human IgG (H+L) antibody (manufactured by Beckman Coulter) was diluted 50-fold with a buffer for FCM was added thereto at 50 μL/well. After reaction in ice shading from the light for 30 minutes, washing with a buffer for FCM was carried out 3 times and fluorescence intensity was measured using a flow cytometer.

B1: anti-PERP mouse antibody KM3411 (antibody, V domains shown)
VH: DVQLQESGPGLVKPSQSLSLTCTVTGFSITTEYAWNWIRQFPGNRLEWMGYIGYTGRTNYSPSLKSRISITRDTSKNQFFLQLNSVTTEDTATYYCTRMDYWGQGTSVTVSS
VL: QIVLIQSPVIMSASPGEKVTITCSASSSVSYMHWFQQKPGTSPKLWIYSTSNLASGVPARFSGSGSGTSYSLTISRMEAEDAATYYCQQRSSYPPTFGAGTKLELK
notes: Used as hybridoma culture supernatant or purified antibody; also called monoclonal antibody KM3411; monoclonal antibody produced by hybridoma KM3411 (FERM BP-8643)
binding result [1]: binds

B2: anti-PERP chimeric antibody KM3481 (antibody, V domains shown)
VH: B1 VH
VL: B1 VL
notes: Human chimeric antibody: VH and VL of KM3411 with human CH and CL from the vector pKANTEX93 (WO 97/10354)
binding result [2]: binds
